Starred links: 1 amine or outer side, 2 acyl side, 3 side chain; linkers in the order of their positions; H or OH if unused. Positions of bridges follow the written chain, without caps; N, C: chain ends. Non-standard residues stand in square brackets, D forms with d. Primed or numbered codes have the meaning given here. No end group written: not given here. Dab(acetyl)″ = 2-amino-4-(acetylamino)butanoic acid, acetyl CH3 carbon bonded to the S of Hcy (S-CH2-C(=O)-NH-), O=C(C[*:3])NCC[C@H](N[*:1])C(=O)[*:2]; Dab(acetyl) = 2-amino-4-acetylamino-butanoic acid residue (N-γ-acetyl-diaminobutyric acid), CC(=O)NCC[C@H](N[*:1])C(=O)[*:2]; Orn(acetyl)″ = N-delta-acetyl-ornithine, acetyl CH3 carbon bonded to the S of Hcy, O=C(C[*:3])NCCC[C@H](N[*:1])C(=O)[*:2]; Lys(acetyl) = N-epsilon-acetyl-lysine, acetyl CH3 carbon bonded to the S of Hcy, O=C(C[*:3])NCCCC[C@H](N[*:1])C(=O)[*:2]; Dap(acetyl) = 2-amino-3-acetylamino-propanoic acid residue, CC(=O)NC[C@H](N[*:1])C(=O)[*:2]; Orn(acetyl) = N-δ-acetyl-ornithine residue, CC(=O)NCCC[C@H](N[*:1])C(=O)[*:2]; COCH2 = acetyl group that carries the bridge; hCys = N[C@@H](CCS)C(=O)O; Dab = NCC[C@H](N)C(=O)O
B1: Cyclic peptide 119 (peptide)
peptide: KKKGXIPRGDTFRXA
modifications: not fully specified; KKKG(Orn(acetyl))IPRGDTFR-(Hcy)-A; thioether bond Orn(acetyl)-Hcy
B2: Cyclic peptide 128 (peptide)
peptide: KKKGXIPRGDTFRXA
modifications: not fully specified; KKKG-(Pen)-IPRGDTFR(Dap(acetyl))A; thioether bond Pen-Dap(acetyl)
B3: Cyclic peptide 125 (peptide)
peptide: AXVPRGDTFAXA
modifications: not fully specified; A-(Hcy)-VPRGDTFA(Dab(acetyl))A; thioether bond Hcy-Dab(acetyl)
notes: no lysine
B4: Cyclic peptide 126 (peptide)
peptide: AXIPRGDSFAXA
modifications: not fully specified; A-(Hcy)-IPRGDSFA(Dab(acetyl))A; thioether bond Hcy-Dab(acetyl)
notes: no lysine
B5: Cyclic peptide 127 (peptide)
peptide: AXIPRGDSFAXG
modifications: not fully specified; A-(Hcy)-IPRGDSFA(Dab(acetyl))G; thioether bond Hcy-Dab(acetyl)
notes: no lysine
B6: Cyclic peptide 132 (peptide)
peptide: KKKGXIPRGDTFRXA
modifications: not fully specified; KKKG(Dap(acetyl))IPRGDTFR-(Pen)-A; thioether bond Dap(acetyl)-Pen
B7: Cyclic peptide 130 (peptide)
peptide: KKKGXIPRGDTFRXA
modifications: not fully specified; KKKG-(Pen)-IPRGDTFR(Orn(acetyl))A; thioether bond Pen-Orn(acetyl)
B8: Cyclic peptide 134 (peptide)
peptide: KKKGXIPRGDTFRXA
modifications: not fully specified; KKKG(Orn(acetyl))IPRGDTFR-(Pen)-A; thioether bond Orn(acetyl)-Pen
B9: Cyclic peptide 7 (peptide)
peptide: KKKGXIPRGDNFRX
modifications: not fully specified; KKKG-(Hcy)-IPRGDNFR(Dab(acetyl)); thioether bond Hcy-Dab(acetyl)
B10: Cyclic peptide 13 (peptide)
peptide: KKKXIPRGDNFX
modifications: not fully specified; KKK-(Hcy)-IPRGDNF(Dab(acetyl)); thioether bond Hcy-Dab(acetyl)
B11: Cyclic peptide 68 (peptide)
peptide: KKKGXXPRGDTFRXA
modifications: not fully specified; KKKG-(Hcy)-(HmY)-PRGDTFR(Dab(acetyl))A; HmY = homotyrosine; thioether bond Hcy-Dab(acetyl)
B12: Cyclic peptide 124 (peptide)
peptide: KKKAXIPRGDSFAXA
modifications: not fully specified; KKKA(Dab(acetyl))IPRGDSFA-(Hcy)-A; thioether bond Dab(acetyl)-Hcy
B13: Cyclic peptide 82 (peptide)
peptide: KKKAXIPRGDTFTXA
modifications: not fully specified; KKKA-(Hcy)-IPRGDTFT(Dab(acetyl))A; thioether bond Hcy-Dab(acetyl)
B14: Cyclic peptide 81 (peptide)
peptide: KKKAXIPRGDTYRXA
modifications: not fully specified; KKKA-(Hcy)-IPRGDTYR(Dab(acetyl))A; thioether bond Hcy-Dab(acetyl)
B15: Cyclic peptide 79 (peptide)
peptide: KKKAXIPRGDAFRXA
modifications: not fully specified; KKKA-(Hcy)-IPRGDAFR(Dab(acetyl))A; thioether bond Hcy-Dab(acetyl)
B16: Cyclic peptide 137 (peptide)
peptide: KKKAXIPRGDSFAXA
modifications: not fully specified; KKKA(Dab(acetyl))IPRGDSFA-(Pen)-A; thioether bond Dab(acetyl)-Pen
B17: Cyclic peptide 72 (peptide)
peptide: KKKGXIPRGDSFRXA
modifications: not fully specified; KKKG-(Hcy)-IPRGDSFR(Dab(acetyl))A; thioether bond Hcy-Dab(acetyl)
B18: Cyclic peptide 76 (peptide)
peptide: KKKAXITRGDTFRXA
modifications: not fully specified; KKKA-(Hcy)-ITRGDTFR(Dab(acetyl))A; thioether bond Hcy-Dab(acetyl)
B19: Cyclic peptide 80 (peptide)
peptide: KKKAXIPRGDTPRXA
modifications: not fully specified; KKKA-(Hcy)-IPRGDTPR(Dab(acetyl))A; thioether bond Hcy-Dab(acetyl)
B20: Cyclic peptide 12 (peptide)
peptide: KKKXIPRGDNFRX
modifications: not fully specified; KKK(Dap(acetyl))IPRGDNFR-(Hcy); thioether bond Dap(acetyl)-Hcy

The binders below were run against T1, human integrin αvβ5 (human, UniProt P06756 31-992; P18084 24-719, limits assumed) (assay: SPR, Biacore 3000, peptide immobilised; A = KD 50 nM or less).
T1 construct: Heterodimer flowed as analyte at 30, 100, 300 and 1,000 nM in HEPES buffer with 5 mM MgCl2
Method: (§1) However, only for the cyclic peptides 125, 126, and 127, in which the number of lysine residues having an amino group as the immobilizing functional group was zero, the amount of the sample solution to be supplied to the sensor chip was set to 500 μL instead of 20 μL. Further, 70 μL of the mixed aqueous solution of 0.2 M EDC and 0.04 M NHS was added to another flow channel of the same sensor chip without immobilizing the sample, and then blocking treatment and washing treatment were carried out. Hereinafter, the obtained immobilization-treated sensor chip is referred to as an “immobilization-treated sensor chip A”.
(§2) After adding human integrin αvβ5 for 10 minutes at 25° C., which was diluted to 30 nM using a HEPES buffer solution to which magnesium chloride was added to 5 mM, in each flow channel of the immobilization-treated sensor chip A prepared in (1) above, the same HEPES buffer solution (containing 5 mM magnesium chloride) was allowed to flow as a running buffer for 30 minutes, and measurement was carried out with Biacore 3000. Then, a regeneration treatment of removing human integrin αvβ5 was carried out by allowing a 0.5 M EDTA aqueous solution to flow through each flow channel for 10 minutes. Further, the above-described measurement process consisting of adding integrin for 10 minutes, allowing a running buffer to flow for 30 minutes, carrying out measurement with Biacore 3000, and carrying out regeneration treatment with 0.5 M EDTA aqueous solution was carried out in the same manner for 100 nM human integrin αvβ5, 300 nM human integrin αvβ5, and 1,000 nM human integrin αvβ5. Dissociation constant between the cyclic peptide and human integrin αvβ5 was calculated from the difference between the value measured by Biacore 3000 in the flow channel immobilized with the cyclic peptide and the value measured by Biacore 3000 in the flow channel unimmobilized with the cyclic peptide, in a case where each concentration of human integrin αvβ5 was allowed to flow, and the integrin binding property was evaluated according to the following evaluation standards. It is preferable that the evaluation result satisfies the evaluation standard A, B, or C.

T1 sequence (P06756 31-992 limits assumed, chain 1 of 2): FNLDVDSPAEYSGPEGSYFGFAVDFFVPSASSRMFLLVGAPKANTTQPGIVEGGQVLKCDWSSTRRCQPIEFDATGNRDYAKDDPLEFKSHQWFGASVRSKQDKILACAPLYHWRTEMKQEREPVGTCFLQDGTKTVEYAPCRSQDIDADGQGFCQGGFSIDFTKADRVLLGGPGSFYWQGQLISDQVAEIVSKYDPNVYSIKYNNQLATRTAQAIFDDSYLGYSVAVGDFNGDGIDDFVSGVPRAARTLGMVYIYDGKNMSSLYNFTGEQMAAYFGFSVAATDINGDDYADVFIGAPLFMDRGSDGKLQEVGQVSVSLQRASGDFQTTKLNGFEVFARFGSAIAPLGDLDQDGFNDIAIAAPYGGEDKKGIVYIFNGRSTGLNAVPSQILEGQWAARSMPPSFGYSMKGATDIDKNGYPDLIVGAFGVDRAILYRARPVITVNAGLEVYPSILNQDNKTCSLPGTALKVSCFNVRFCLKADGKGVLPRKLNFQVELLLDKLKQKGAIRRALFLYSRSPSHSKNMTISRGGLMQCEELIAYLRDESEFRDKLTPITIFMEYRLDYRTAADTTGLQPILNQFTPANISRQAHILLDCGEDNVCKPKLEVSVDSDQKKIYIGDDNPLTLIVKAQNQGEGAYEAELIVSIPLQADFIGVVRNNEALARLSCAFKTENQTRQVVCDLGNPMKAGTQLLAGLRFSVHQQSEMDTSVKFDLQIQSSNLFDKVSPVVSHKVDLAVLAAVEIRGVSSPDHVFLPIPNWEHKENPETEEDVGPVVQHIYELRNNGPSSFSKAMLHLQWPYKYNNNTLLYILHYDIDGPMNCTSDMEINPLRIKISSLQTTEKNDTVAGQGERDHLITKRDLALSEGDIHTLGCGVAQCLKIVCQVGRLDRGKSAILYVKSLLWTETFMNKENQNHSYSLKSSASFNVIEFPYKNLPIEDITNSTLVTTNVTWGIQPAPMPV
T1 sequence (P18084 24-719 limits assumed, chain 2 of 2): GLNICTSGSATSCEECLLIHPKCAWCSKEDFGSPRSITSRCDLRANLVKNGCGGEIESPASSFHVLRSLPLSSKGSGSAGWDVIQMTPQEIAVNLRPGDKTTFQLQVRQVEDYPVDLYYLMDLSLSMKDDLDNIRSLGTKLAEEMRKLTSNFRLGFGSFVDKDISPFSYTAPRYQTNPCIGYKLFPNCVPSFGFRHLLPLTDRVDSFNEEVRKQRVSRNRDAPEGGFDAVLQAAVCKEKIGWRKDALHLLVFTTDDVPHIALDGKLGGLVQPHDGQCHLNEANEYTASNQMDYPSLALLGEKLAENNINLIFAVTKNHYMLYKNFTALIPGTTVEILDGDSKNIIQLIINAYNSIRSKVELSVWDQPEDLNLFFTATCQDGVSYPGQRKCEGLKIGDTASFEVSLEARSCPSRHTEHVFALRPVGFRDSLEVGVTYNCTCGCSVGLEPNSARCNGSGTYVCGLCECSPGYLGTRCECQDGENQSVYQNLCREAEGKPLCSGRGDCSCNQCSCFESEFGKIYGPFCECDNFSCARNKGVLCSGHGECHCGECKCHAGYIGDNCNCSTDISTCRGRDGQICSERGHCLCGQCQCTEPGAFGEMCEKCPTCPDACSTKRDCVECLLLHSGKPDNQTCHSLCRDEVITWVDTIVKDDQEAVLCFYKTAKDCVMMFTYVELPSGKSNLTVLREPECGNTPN

dissociation constant | dissociation constant (KD) | Binder
≤ 50 nM | – | KKKG[hCys]IPRGDTFR[Orn(acetyl)″]A (thioether 5-14) [Cyclic peptide 115]
≤ 50 nM | – | B1
– | ≤ 50 nM | KKKG[hCys]IPRGDTF[Dab(acetyl)″]A (thioether 5-13) [Cyclic peptide 58]
≤ 50 nM | – | B2
≤ 50 nM | – | KKKG[Dab(acetyl)″]IPRGDTFR[hCys]A (thioether 5-14) [Cyclic peptide 118]
≤ 50 nM | – | KKKG[Orn(acetyl)]IPRGDTFRCA (thioether 5-14) [Cyclic peptide 139]
≤ 50 nM | – | B3
≤ 50 nM | – | KKKG[hCys]IPRGDTFR[Lys(acetyl)]A (thioether 5-14) [Cyclic peptide 116]
– | ≤ 50 nM | KKKA[hCys]IPRGDNYR[Dab](COCH2)D (thioether 5-14) [Cyclic peptide 30]
– | ≤ 50 nM | KKKA[hCys]LPRGDNYR[Dab](COCH2)D (thioether 5-14) [Cyclic peptide 31]
– | ≤ 50 nM | KKKE[hCys]EPRGDNYR[Dab](COCH2)D (thioether 5-14) [Cyclic peptide 39]
– | ≤ 50 nM | KKKA[hCys]EPRGDNFR[Dab](COCH2)D (thioether 5-14) [Cyclic peptide 34]
– | ≤ 50 nM | KKKA[hCys]YPRGDNYR[Dab](COCH2)D (thioether 5-14) [Cyclic peptide 32]
≤ 50 nM | – | KKKG[hCys]AIPRGDTFRA[Dab(acetyl)″]A (thioether 5-16) [Cyclic peptide 67]
≤ 50 nM | – | B4
≤ 50 nM | – | B5
≤ 50 nM | – | KKKG[Dap(acetyl)]IPRGDTFR[hCys]A (thioether 5-14) [Cyclic peptide 117]
≤ 50 nM | – | B6
– | ≤ 50 nM | KKK[hCys]IPRGDNFRAA[Dab](COCH2)A (thioether 4-15) [Cyclic peptide 19]

dissociation constant | dissociation constant (KD) | Binder
≤ 50 nM | – | B7
≤ 50 nM | – | B8
– | ≤ 50 nM | B9
– | ≤ 50 nM | KKKG[hCys]IPRGDTFR[Dab(acetyl)″] (thioether 5-14) [Cyclic peptide 59]
– | ≤ 50 nM | KKKA[Dap(acetyl)]EPRGDNYR[hCys]D (thioether 5-14) [Cyclic peptide 48]
– | ≤ 50 nM | B10
– | ≤ 50 nM | KKK[hCys]VPRGDNF[Dab(acetyl)] (thioether 4-12) [Cyclic peptide 14]
≤ 50 nM | – | KKK[hCys]IPRGDTF[Dab(acetyl)″] (thioether 4-12) [Cyclic peptide 63]
≤ 50 nM | – | KKK[hCys]VPRGDVF[Dab(acetyl)″] (thioether 4-12) [Cyclic peptide 66]
≤ 50 nM | – | KKK[hCys]VPRGDTF[Dab(acetyl)″] (thioether 4-12) [Cyclic peptide 64]
≤ 50 nM | – | B11
≤ 50 nM | – | KKKG[hCys]IPRGDTFR[Dap(acetyl)]A (thioether 5-14) [Cyclic peptide 114]
– | ≤ 50 nM | KKK[hCys]IPRGDNFR[Dab](COCH2)A (thioether 4-13) [Cyclic peptide 3]
– | ≤ 50 nM | KKK[hCys]VPRGDNFR[Dab](COCH2)A (thioether 4-13) [Cyclic peptide 21]
– | ≤ 50 nM | KKK[hCys]IPRGDTFR[Dab(acetyl)″]A (thioether 4-13) [Cyclic peptide 57]
– | ≤ 50 nM | KKK[hCys]YPRGDNFR[Dab](COCH2)A (thioether 4-13) [Cyclic peptide 24]
– | ≤ 50 nM | KKK[hCys]IPRGDNFR[Dab(acetyl)″]D (thioether 4-13) [Cyclic peptide 5]
– | ≤ 50 nM | KKK[hCys]EPRGDNFR[Dab](COCH2)A (thioether 4-13) [Cyclic peptide 23]
– | ≤ 50 nM | KKK[hCys]IPRGDNFR[Dab](COCH2)G (thioether 4-13) [Cyclic peptide 4]

The binders below were run against T1, human integrin αvβ5 (assay: SPR, Biacore 3000, peptide immobilised; B = KD more than 50 nM and 100 nM or less).
Method: as §1, §2

dissociation constant (KD) | dissociation constant | Binder
50 to 100 nM | – | KKK[hCys]IPRGDNF[Dab(acetyl)″]A (thioether 4-12) [Cyclic peptide 10]
50 to 100 nM | – | KKKG[hCys]LPRGDSFR[Dab](COCH2)A (thioether 5-14) [Cyclic peptide 28]
– | 50 to 100 nM | B12
– | 50 to 100 nM | B13
– | 50 to 100 nM | B14
– | 50 to 100 nM | B15
– | 50 to 100 nM | B16
– | 50 to 100 nM | B17
– | 50 to 100 nM | B18
– | 50 to 100 nM | B19
– | 50 to 100 nM | KKKA[hCys]VTRGDVFT[Dab(acetyl)″]A (thioether 5-14) [Cyclic peptide 113]
50 to 100 nM | – | B20

From patent US20220089647A1 (FUJIFILM, published 2022)
